For two molecules, percent of parent results are on record in publication PMC7679444.

The experiment has as its target GST-HA-ATG16L1(231–607), Q676U5. Description: peptide microarray. The note with it: chain shown with the change; 800, 600, 400 nM; n = 9; read off a plot.

Sequence of GST-HA-ATG16L1(231–607), Q676U5 (Q676U5 231-607): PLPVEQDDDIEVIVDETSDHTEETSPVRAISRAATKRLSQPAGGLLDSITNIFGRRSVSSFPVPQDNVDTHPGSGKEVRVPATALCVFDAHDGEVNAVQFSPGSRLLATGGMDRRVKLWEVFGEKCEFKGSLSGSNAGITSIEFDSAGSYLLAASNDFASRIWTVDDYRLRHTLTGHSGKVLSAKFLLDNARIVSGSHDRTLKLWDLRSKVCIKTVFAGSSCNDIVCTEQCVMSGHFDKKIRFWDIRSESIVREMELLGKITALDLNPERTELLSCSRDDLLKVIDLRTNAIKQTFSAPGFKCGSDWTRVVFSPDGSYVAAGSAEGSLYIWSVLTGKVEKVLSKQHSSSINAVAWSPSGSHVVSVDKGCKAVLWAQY

B1: TMEM59 peptide (residues 268–280), wild type, Q9BXS4 V269del; P270del; S271del (peptide)
chain: YEKLSIYGDL
Turning to B1, the percent of parent is 160 % WT.

B2: TMEM59 peptide (residues 268–280), wild type, Q9BXS4 K273del; S275del; I276del (peptide)
chain: YVPSELYGDL
As for B2, the percent of parent was found to be 110 % WT.
